Results as given in the supplement of paper PMC11780869.

Test system: Bacillus subtilis
Test: cleaved RNA product abundance (RNA/gDNA barcode ratio) relative to median wild-type variant (ratio to wild type); higher = more accumulation of the downstream cleavage product
Details: cleavage site: cggR-gapA (positions -7 to +36 mutated)
Description: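 MPRA in B. subtilis. Mutagenized RNase Y cleavage-site regions (9% mutation rate) were inserted into a barcoded reporter mRNA (truncated aprE or tetM). Cells were grown in LB at 37°C to OD600 0.3. The cleaved RNA isoform was gel-purified and its barcodes counted; the RNA:gDNA barcode ratio was normalised to the median wild-type variant, and the median over barcodes is reported per variant. The printed sequence is the variable window only; the reporter flanks are not printed.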

[1] = experiment (reporter, strain, medium): exp 4a: truncated aprE reporter, strain BJT201 with 2% xylose (RNase J1 expressed)
[2] = experiment (reporter, strain, medium): exp 2b: truncated aprE reporter, strain BJT200

ACAGACGAAGGAGCCGCAAAGAAATTATTAATGAATGAATAATCCCTCAATATAAATATCTCTCACTTATTTAAA
cleaved RNA product abundance [1]: 0.152

ACAGACGAAGGAGCCGCAAAGAAATTATTAATGGATGAATAATCCCTCAATATAAATATCTCTCACTTATTTAAA
cleaved RNA product abundance [2]: 0.122
cleaved RNA product abundance [1]: 0.169

ACAGACGAAGGAGCCGCAAAGAAATTATTAATGTATGAATAATCCCTCAATATAAATATCTCTCACTTATTTAAA
cleaved RNA product abundance [2]: 0.117
cleaved RNA product abundance [1]: 0.111

ACAGACGAAGGAGCCGCAAAGAAATTATTACGGGATGAATAATCCCTCAATATAAATATCTCTCACTTATTTAAA
cleaved RNA product abundance [1]: 0.396

ACAGACGAAGGAGCCGCAAAGAAATTATTAGGGGATGAATAATCCCTCAATATAAATATCTCTCACTTATTTAAA
cleaved RNA product abundance [1]: 0.586

ACAGACGAAGGAGCCGCAAAGAAATTATTAGGGGATGAATAATCCCTCCATATAAATATCTCTCACTTATTTAAA
cleaved RNA product abundance [2]: 0.188

ACAGACGAAGGAGCCGCAAAGAAATTATTATGGGATGAATAATCCCTCAATATAAATATCTCTCACTTATTTAAA
cleaved RNA product abundance [1]: 0.277

ACAGACGAAGGAGCCGCAAAGAAATTATTCAGGGATGAATAATCCCTCAATATAAATATCTCTCACTTATTTAAA
cleaved RNA product abundance [2]: 0.575
cleaved RNA product abundance [1]: 0.747

ACAGACGAAGGAGCCGCAAAGAAATTATTTAGGGATGAATAATCCCTCAATATAAATATCTCTCACTTATTTAAA
cleaved RNA product abundance [1]: 0.718

ACAGACGAAGGAGCCGCAAAGAAATTCTTAAGGGATGAATAATCCCTCAATATAAATATCTCTCACTTATTTAAA
cleaved RNA product abundance [2]: 0.186
cleaved RNA product abundance [1]: 0.199

ACAGACGAAGGAGCCGCAAAGAAATTGTTAAGGGATGAATAATCCCTCAATATAAATATCTCTCACTTATTTAAA
cleaved RNA product abundance [2]: 0.377

ACAGACGAAGGAGCCGCAAAGAAATTTTTAAGGGATGAATAATCCCTCAATATAAATATCTCTCACTTATTTAAA
cleaved RNA product abundance [2]: 0.206
cleaved RNA product abundance [1]: 0.264

ACAGACGAAGGAGCCGCAAAGAACATATTAAGGGATGAATAATCCCTCAATATAAATATCTCTCACTTATTTAAA
cleaved RNA product abundance [2]: 0.607
cleaved RNA product abundance [1]: 0.499

ACAGACGAAGGAGCCGCAAAGAACCTATTAAGGGATGAATAATCCCTCAATATAAATATCTCTCACTTATTTAAA
cleaved RNA product abundance [2]: 0.18
cleaved RNA product abundance [1]: 0.309

ACAGACGAAGGAGCCGCAAAGAACGTATTAAGGGATGAATAATCCCTCAATATAAATATCTCTCACTTATTTAAA
cleaved RNA product abundance [1]: 0.724

ACAGACGAAGGAGCCGCAAAGAACTAATTAAGGGATGAATAATCCCTCAATATAAATATCTCTCACTTATTTAAA
cleaved RNA product abundance [1]: 0.321

ACAGACGAAGGAGCCGCAAAGAACTGATTAAGGGATGAATAATCCCTCAATATAAATATCTCTCACTTATTTAAA
cleaved RNA product abundance [1]: 0.238

ACAGACGAAGGAGCCGCAAAGAACTTAATAAGGAATGAATAATCCCTCAATATAAATATCTCTCACTTATTTAAA
cleaved RNA product abundance [1]: 0.133

ACAGACGAAGGAGCCGCAAAGAACTTAATAAGGGATGAATAATCCCTCAATATAAATATCTCTCACTTATTTAAA
cleaved RNA product abundance [1]: 0.167

ACAGACGAAGGAGCCGCAAAGAACTTACTAAGGGATGAATAATCCCTCAATATAAATATCTCTCACTTATTTAAA
cleaved RNA product abundance [1]: 0.237

ACAGACGAAGGAGCCGCAAAGAACTTATAAAGGGACGAATAATCCCTCAATATAAATATCTCTCACTTATTTAAA
cleaved RNA product abundance [1]: 0.162

ACAGACGAAGGAGCCGCAAAGAACTTATAAAGGGATGAATAATCCCTCAATATAAATATCTCTCACTTATTTAAA
cleaved RNA product abundance [2]: 0.24
cleaved RNA product abundance [1]: 0.263

ACAGACGAAGGAGCCGCAAAGAACTTATCAAGGGATGAATAATCCCTCAATATAAATATCTCTCACTTATTTAAA
cleaved RNA product abundance [1]: 0.32

ACAGACGAAGGAGCCGCAAAGAACTTATGAAGGGATGAATAATCCCTCAATATAAATATCTCTCACTTATTTAAA
cleaved RNA product abundance [2]: 0.274

ACAGACGAAGGAGCCGCAAAGAACTTATTAAAGGATGAATAATCCCTCAATATAAATATCTCTCACTTATTTAAA
cleaved RNA product abundance [2]: 0.166

ACAGACGAAGGAGCCGCAAAGAACTTATTAACGGATGAATAATCCCTCAATATAAATATCTCTCACTTATTTAAA
cleaved RNA product abundance [1]: 0.112

ACAGACGAAGGAGCCGCAAAGAACTTATTAAGAGATGAATAATCCCTCAATATAAATATCTCTCACTTATTTAAA
cleaved RNA product abundance [2]: 0.092
cleaved RNA product abundance [1]: 0.147

ACAGACGAAGGAGCCGCAAAGAACTTATTAAGCGATGAATAATCCCTCAATATAAATATCTCTCACTTATTTAAA
cleaved RNA product abundance [2]: 0.0844
cleaved RNA product abundance [1]: 0.157

ACAGACGAAGGAGCCGCAAAGAACTTATTAAGGAATGAATAATCCCTCAATATAAATATCTCTCACTTATTTAAA
cleaved RNA product abundance [1]: 0.117

ACAGACGAAGGAGCCGCAAAGAACTTATTAAGGCATGAATAATCCCTCAATATAAATATCTCTCACTTATTTAAA
cleaved RNA product abundance [2]: 0.114
cleaved RNA product abundance [1]: 0.099

ACAGACGAAGGAGCCGCAAAGAACTTATTAAGGGAAGAATAATCCCTCAATATAAATATCTCTCACTTATTTAAA
cleaved RNA product abundance [1]: 0.235

ACAGACGAAGGAGCCGCAAAGAACTTATTAAGGGACGAATAATCCCTCAATATAAATATCTCTCACTTATTTAAA
cleaved RNA product abundance [2]: 0.375
cleaved RNA product abundance [1]: 0.389

ACAGACGAAGGAGCCGCAAAGAACTTATTAAGGGAGGAATAATCCCTCAATATAAATATCTCTCACTTATTTAAA
cleaved RNA product abundance [1]: 0.315

ACAGACGAAGGAGCCGCAAAGAACTTATTAAGGGATAAATAATCCCTCAATATAAATATCTCTCACTTATTTAAA
cleaved RNA product abundance [2]: 0.556
cleaved RNA product abundance [1]: 0.477

ACAGACGAAGGAGCCGCAAAGAACTTATTAAGGGATCAATAATCCCTCAATATAAATATCTCTCACTTATTTAAA
cleaved RNA product abundance [2]: 0.282
cleaved RNA product abundance [1]: 0.27

ACAGACGAAGGAGCCGCAAAGAACTTATTAAGGGATGAAAAATCCCTCAATATAAATATCTCTCACTTATTTAAA
cleaved RNA product abundance [1]: 0.521

ACAGACGAAGGAGCCGCAAAGAACTTATTAAGGGATGAACAATCCCTCAATATAAATATCTCTCACTTATTTAAA
cleaved RNA product abundance [1]: 0.344

ACAGACGAAGGAGCCGCAAAGAACTTATTAAGGGATGAATAAACCCTCAATATAAATATCTCTCACTTATTTAAA
cleaved RNA product abundance [2]: 0.224
cleaved RNA product abundance [1]: 0.265

ACAGACGAAGGAGCCGCAAAGAACTTATTAAGGGATGAATAACCCCTCAATATAAATATCTCTCACTTATTTAAA
cleaved RNA product abundance [2]: 0.235

ACAGACGAAGGAGCCGCAAAGAACTTATTAAGGGATGAATAATACCTCAATATAAATATCTCTCACTTATTTAAA
cleaved RNA product abundance [2]: 0.0995
cleaved RNA product abundance [1]: 0.165

ACAGACGAAGGAGCCGCAAAGAACTTATTAAGGGATGAATAATCACTCAATATAAATATCTCTCACTTATTTAAA
cleaved RNA product abundance [2]: 0.102
cleaved RNA product abundance [1]: 0.152

ACAGACGAAGGAGCCGCAAAGAACTTATTAAGGGATGAATAATCCATCAATATAAATATCTCTCACTTATTTAAA
cleaved RNA product abundance [2]: 0.15
cleaved RNA product abundance [1]: 0.209

ACAGACGAAGGAGCCGCAAAGAACTTATTAAGGGATGAATAATCCCACAATATAAATATCTCTCACTTATTTAAA
cleaved RNA product abundance [2]: 0.207
cleaved RNA product abundance [1]: 0.292

ACAGACGAAGGAGCCGCAAAGAACTTATTAAGGGATGAATAATCCCCCAATATAAATATCTCTCACTTATTTAAA
cleaved RNA product abundance [1]: 0.25

ACAGACGAAGGAGCCGCAAAGAACTTATTAAGGGATGAATAATCCCTAAATATAAATATCTCTCACTTATTTAAA
cleaved RNA product abundance [2]: 0.258
cleaved RNA product abundance [1]: 0.454

ACAGACGAAGGAGCCGCAAAGAACTTATTAAGGGATGAATAATCCCTCAAAATAAATATCTCTCACTTATTTAAA
cleaved RNA product abundance [1]: 0.208

ACAGACGAAGGAGCCGCAAAGAACTTATTAAGGGATGAATAATCCCTCAACATAAATATCTCTCACTTATTTAAA
cleaved RNA product abundance [1]: 0.227

ACAGACGAAGGAGCCGCAAAGAACTTATTAAGGGATGAATAATCCCTCAAGATAAATATCTCTCACTTATTTAAA
cleaved RNA product abundance [2]: 0.165
cleaved RNA product abundance [1]: 0.185

ACAGACGAAGGAGCCGCAAAGAACTTATTAAGGGATGAATAATCCCTCAATATAAACATCTCTCACTTATTTAAA
cleaved RNA product abundance [1]: 0.348

ACAGACGAAGGAGCCGCAAAGAACTTATTAAGGGATGAATAATCCCTCAATATAAATAACTCTCACTTATTTAAA
cleaved RNA product abundance [2]: 0.444
cleaved RNA product abundance [1]: 0.566

ACAGACGAAGGAGCCGCAAAGAACTTATTAAGGGATGAATAATCCCTCAATATAAATATCTCTCACTTATTTAAA
cleaved RNA product abundance [2]: 0.448
cleaved RNA product abundance [1]: 0.509
cleaved RNA product abundance (experiment (reporter, strain, medium): exp 6: tetM reporter, strain 168): 0.575
